Laboratory results taken from article PMC3612955.

Target: actin (untreated, of the in vitro assays of Fig. 1) (UniProt P68135)

Mical, sequence (Q86BA1 whole entry): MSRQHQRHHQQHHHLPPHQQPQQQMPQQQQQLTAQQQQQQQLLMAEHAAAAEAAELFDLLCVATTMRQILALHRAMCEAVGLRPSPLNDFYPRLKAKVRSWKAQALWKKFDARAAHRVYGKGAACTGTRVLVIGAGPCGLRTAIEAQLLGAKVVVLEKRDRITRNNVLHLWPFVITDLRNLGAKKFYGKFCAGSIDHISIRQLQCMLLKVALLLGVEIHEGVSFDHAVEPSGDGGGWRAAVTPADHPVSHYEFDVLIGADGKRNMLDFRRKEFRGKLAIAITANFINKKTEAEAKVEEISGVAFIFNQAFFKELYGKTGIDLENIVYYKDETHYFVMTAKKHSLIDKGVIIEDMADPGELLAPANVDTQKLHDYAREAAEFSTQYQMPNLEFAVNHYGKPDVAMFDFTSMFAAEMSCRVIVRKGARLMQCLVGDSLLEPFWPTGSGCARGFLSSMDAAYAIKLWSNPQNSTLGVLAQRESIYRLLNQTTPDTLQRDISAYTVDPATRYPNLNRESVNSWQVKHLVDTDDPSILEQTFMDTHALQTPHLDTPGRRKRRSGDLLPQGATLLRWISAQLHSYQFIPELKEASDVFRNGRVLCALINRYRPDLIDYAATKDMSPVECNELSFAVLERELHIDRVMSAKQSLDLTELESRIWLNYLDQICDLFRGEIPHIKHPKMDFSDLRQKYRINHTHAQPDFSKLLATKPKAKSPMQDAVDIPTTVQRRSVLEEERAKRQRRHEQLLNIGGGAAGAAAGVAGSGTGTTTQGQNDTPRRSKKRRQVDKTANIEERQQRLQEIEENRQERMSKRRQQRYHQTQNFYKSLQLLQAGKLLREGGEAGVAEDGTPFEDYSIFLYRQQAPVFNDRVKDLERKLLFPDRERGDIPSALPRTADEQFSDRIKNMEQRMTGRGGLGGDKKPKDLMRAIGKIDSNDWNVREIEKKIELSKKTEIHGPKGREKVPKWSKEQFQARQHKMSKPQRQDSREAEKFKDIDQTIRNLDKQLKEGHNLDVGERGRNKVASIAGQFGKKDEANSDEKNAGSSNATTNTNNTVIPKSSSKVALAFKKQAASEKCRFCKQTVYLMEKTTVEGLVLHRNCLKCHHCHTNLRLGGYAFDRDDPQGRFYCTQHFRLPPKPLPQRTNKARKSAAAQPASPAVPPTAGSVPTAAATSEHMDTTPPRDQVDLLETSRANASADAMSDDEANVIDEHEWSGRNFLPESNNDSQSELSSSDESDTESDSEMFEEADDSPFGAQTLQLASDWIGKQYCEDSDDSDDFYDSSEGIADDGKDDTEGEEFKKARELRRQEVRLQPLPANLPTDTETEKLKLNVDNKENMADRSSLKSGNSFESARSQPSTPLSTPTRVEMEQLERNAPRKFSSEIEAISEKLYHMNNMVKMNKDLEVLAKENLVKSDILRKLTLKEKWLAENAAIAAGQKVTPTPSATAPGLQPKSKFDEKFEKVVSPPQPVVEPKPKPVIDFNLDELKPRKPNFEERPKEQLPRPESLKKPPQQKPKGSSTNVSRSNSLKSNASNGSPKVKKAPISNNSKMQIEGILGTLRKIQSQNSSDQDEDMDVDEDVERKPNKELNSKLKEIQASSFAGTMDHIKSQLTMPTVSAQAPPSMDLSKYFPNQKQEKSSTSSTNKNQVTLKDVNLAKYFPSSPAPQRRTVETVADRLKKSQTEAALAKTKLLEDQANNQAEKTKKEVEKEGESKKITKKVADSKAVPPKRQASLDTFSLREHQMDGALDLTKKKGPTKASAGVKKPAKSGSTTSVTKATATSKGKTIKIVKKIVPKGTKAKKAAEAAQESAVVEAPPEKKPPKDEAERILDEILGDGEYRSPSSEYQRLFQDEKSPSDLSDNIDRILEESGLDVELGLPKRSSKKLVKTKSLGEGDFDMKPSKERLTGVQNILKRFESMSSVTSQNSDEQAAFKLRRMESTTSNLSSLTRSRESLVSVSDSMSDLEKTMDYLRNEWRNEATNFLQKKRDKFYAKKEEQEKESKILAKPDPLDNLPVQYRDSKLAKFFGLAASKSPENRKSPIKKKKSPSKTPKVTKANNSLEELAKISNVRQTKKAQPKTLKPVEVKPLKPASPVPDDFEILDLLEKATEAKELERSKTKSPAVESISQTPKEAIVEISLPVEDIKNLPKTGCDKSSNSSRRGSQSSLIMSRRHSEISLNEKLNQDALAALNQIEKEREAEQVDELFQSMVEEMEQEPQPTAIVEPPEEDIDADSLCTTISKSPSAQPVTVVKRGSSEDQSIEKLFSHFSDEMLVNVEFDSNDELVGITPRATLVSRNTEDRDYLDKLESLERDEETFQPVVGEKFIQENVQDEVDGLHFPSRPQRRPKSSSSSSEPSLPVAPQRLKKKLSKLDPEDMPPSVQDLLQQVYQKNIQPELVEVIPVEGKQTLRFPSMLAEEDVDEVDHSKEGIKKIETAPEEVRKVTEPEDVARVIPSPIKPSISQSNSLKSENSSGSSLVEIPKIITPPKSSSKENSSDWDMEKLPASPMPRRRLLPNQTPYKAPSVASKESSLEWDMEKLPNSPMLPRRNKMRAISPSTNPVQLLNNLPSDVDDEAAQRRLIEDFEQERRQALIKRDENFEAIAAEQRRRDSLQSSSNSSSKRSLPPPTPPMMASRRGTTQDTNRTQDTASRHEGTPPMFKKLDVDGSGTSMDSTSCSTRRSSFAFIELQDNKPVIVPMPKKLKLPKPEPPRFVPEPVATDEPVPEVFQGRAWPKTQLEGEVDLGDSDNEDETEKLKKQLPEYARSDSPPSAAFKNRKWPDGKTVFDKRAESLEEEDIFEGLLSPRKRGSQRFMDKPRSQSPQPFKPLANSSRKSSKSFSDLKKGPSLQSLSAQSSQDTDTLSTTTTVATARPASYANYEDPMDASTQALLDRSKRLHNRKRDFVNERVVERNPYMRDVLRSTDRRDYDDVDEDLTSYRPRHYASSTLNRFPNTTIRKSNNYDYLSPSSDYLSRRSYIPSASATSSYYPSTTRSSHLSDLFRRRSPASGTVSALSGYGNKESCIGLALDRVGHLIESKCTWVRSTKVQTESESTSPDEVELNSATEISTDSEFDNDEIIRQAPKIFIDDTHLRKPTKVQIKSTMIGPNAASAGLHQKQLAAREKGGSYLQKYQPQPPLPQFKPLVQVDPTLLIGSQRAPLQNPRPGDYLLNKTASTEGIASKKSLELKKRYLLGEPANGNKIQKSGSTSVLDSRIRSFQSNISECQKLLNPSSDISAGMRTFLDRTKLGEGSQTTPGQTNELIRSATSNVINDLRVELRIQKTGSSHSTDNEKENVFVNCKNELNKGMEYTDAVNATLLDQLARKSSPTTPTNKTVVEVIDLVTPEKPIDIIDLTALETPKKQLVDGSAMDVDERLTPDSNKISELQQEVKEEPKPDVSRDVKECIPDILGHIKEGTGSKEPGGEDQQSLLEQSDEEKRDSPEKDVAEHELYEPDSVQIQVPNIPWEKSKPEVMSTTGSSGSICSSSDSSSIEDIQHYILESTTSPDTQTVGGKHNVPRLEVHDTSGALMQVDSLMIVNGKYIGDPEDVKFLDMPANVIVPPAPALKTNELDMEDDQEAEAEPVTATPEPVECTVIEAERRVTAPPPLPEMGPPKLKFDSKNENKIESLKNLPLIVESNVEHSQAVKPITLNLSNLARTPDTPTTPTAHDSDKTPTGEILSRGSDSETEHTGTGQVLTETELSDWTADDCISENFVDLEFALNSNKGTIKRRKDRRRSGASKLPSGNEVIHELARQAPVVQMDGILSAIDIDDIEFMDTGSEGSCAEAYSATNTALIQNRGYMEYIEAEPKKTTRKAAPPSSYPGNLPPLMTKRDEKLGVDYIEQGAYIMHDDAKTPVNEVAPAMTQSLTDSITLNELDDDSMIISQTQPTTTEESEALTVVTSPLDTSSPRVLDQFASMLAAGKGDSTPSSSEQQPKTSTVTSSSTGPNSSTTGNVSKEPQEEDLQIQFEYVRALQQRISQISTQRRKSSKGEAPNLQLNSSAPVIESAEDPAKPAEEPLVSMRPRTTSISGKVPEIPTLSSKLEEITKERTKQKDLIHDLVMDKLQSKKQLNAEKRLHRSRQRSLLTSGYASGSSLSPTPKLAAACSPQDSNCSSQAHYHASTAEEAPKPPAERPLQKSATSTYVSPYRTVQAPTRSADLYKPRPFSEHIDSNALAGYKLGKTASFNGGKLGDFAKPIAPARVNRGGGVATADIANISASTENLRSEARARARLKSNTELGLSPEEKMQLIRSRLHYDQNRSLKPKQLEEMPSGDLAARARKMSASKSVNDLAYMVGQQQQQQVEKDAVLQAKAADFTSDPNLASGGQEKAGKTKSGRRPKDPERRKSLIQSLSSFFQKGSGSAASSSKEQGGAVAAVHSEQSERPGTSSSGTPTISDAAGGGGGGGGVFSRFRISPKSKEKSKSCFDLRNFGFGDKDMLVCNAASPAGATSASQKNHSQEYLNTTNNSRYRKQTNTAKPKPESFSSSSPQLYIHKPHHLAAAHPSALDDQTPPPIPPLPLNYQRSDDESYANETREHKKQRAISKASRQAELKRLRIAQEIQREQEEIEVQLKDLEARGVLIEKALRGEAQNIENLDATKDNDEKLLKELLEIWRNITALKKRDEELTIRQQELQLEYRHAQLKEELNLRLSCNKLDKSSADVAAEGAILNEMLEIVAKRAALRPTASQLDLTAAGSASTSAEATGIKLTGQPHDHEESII

Mical (from UniProt Q86BA1 1-4723) (enzyme)
Mical enzymatic activity (conversion of NADPH to NADP+) with F-actin: > 100 fold
